Test results from the DeepSol protein solubility set.

Experiment: soluble on expression in E. coli; label from the status in PepcDB or PDB records

Row | Sequence | soluble on expression in E. coli
1 | MSLRTPYEEVRDFFHFVDNYVAEIDLLAEELAQELEIEGGETYGILAAHLRSLYGIHITRTEAAGGLIRHFDPAGKTLALSSYMAAPTRCFQLALQIAQLHAGATVDRVLAGAGFRNAEAAEICRIGLHNYFAAALILPYGQFHRAAQELRHDLELLAVRFGASLEQVAHRLSTLQRPGMKGVPIFFAKIDRAGNITKRHSATRLQFARFGAACPLWNIHQAFESSDRIVRQLAETPDGVRYLSIATQIEKAGAGFNTERPRYAIALGCEISHAQNFVYADTLDLGNAASFKPIGISCRVCERVDCVQRAVPPLKRKLHFDHLSRGALPYQIAEGHHHHHH | soluble
2 | MGSDKIHHHHHHMKEAKKIDISKLKTGFLGKFPSHQLSRILSSEPDRLTEPEFLAKALKENKYVPYYYINVRENPTSIKIYRYVTKISNRDNDIDEVKNKFDSFLYGKSIVILDEVDFLQDYDVLYHITRHTKANLILLTQKVYWYMDTNDESVKSSLQPDHIVFYEYSSDEIREILKMRADEGLNKYDPDSLGLLSAMLVRNYRSDARIGIKALEIIGRMNEWDDDSVRTALKQAYVEVEGETLKNLGDRDLLILAALIKNQDTNRAYSEVSASSNLLLRGVSKSTFF | not soluble
3 | MGSDKIHHHHHHMYYPYWQLGGTPWYQPPVQQQAPPYFQLPPLYTGPYSSPYQTSLVPYLTRPLRTPETPQDRTRTIMRDLMTAIDGEHRAIQCYQQMAQHAPTKKEQQQIEEIITDEQRHLRTFSALYQQITEKQHEPTTDQKISHNYEKALAFAVEEEQKTVDFYLEVADHAPNLQIREAFQRAAKDEQNHAVWFLYFLTKRLTSKL | not soluble
4 | MTQFNPVDHPHRRYNPLTGQWILVSPHRAKRPWQGAQETPAKQVLPAHDPDCFLCAGNVRVTGDKNPDYTGTYVFTNDFAALMSDTPDAPESHDPLMRCQSARGTSRVICFSPDHSKTLPELSVAALTEIVKTWQEQTAELGKTYPWVQVFENKGAAMGCSNPHPHGQIWANSFLPNEAEREDRLQKEYFAEQKSPMLVDYVQRELADGSRTVVETEHWLAVVPYWAAWPFETLLLPKAHVLRITDLTDAQRSDLALALKKLTSRYDNLFQCSFPYSMGWHGAPFNGEENQHWQLHAHFYPPLLRSATVRKFMVGYEMLAETQRDLTAEQAAERLRAVSDIHFRESGV | soluble
5 | GSHMVLTKKKLQDLVREVDPNEQLDEDVEEMLLQIADDFIESVVTAACQLARHRKSSTLEVKDVQLHLERQWNMWI | soluble
6 | MAGDPNSMNLKQSIEEIINQPEYEPMSVSDFQDALGLSSADSFRDLIKVLVELEQSGLIERTKTDRYQKKHSSKGHSKLIKGTLSQNKKGFAFLRPEDEDMEDIFIPPTKINRALDGDTVIVEIHQSKGEHKGKIEGEVKSIEKHSVTQVVGTYSEARHFGFVIPDDKRIMQDIFIPKGQSLGAVDGHKVLVQITKYADGSDNPEGHISAILGHKNDPGVDILSIIYQHGIEIEFPDEVLQEAEAVPDHIENTEIKGRHDLRDELTITIDGADAKDLDDAISVKKLANGNTQLTVSIADVSYYVTEGSALDKEAYDRATSVYLVDRVIPMIPHRLSNGICSLNPNVDRLTLSCRMEIDASGRVVKHEIFDSVIHSDYRMTYDAVNQIITEKDPNIREQYKEITPMLDLAQDLSNRLIQMRKRRGEIDFDINEAKVLVNEDGIPTDVQLRQRGEGERLIESFMLIANETVAEHFSKLDVPFIYRVHEQPKSDRLRQFFDFITNFGIMIKGTGEDIHPTTLQKVQEEVEGRPEQMVISTMMLRSMQQAHYDDVNLGHFGLSAEYYTHFTSPIRRYPDLTVHRLIRKYLIEKSMDNKEVKRWEDKLPELAEHTSKRERRAIEAERDTDELKKAEYMIQHIGDEFEGIVSSVANFGMFIELPNTIEGMVHIANMTDDYYRFEERQMALIGERQAKVFRIGDTVKVKVTHVDVDERLIDFQIVGMPLPKNDRSQRPARGKTIQAKTRGKSLDKSKSDDKGRKKKGSQRKGKNERKNDKSGNSKHKPFYKDKSVKKKARRKKKLEHHHHHH | soluble
7 | MEQQRSFQTETGGHLYLVPTPIGNLDDMTFRAVKTLTAVDLIAAEDTRNTQKLLNHFEITTKQISFHEHNTQERIPQLIAKLKQGMQIAQVSDAGMPSISDPGHELVNACIDAHIPVVPLPGANAGLTALIASGLAPQPFYFYGFLDRKPKDRKAEIAGLAQRPETLIFYEAPHRLKKTLQNLAAGFGDERPAVLCRELTKRYEEFLRGSLAELANWAATDTVRGEFVVLVGGNPAPTTAATTAVDLSEPIDVQVDRLIAAGEKPNDAIKEVAKLRGAKKQEIYRQYHHLDEE | soluble
8 | MGHHHHHHSHMNIFIMRHGEAEVMANSDKARHLTVYGSKQAFLQGQWLKQHLSTLVINSLDRILVSPYVRAQETFHQVNQAFDLELENKFEIWEGITPYGHAHSVIDYLEVLKDEGVKSVLIVSHLPLVGEIVAELYGKRNPISFYPATIAQLLWDGNKSEILMHQASPVIYLK | not soluble
9 | MSWFISRKDIAYISRGAKLLGCGGGGDTKTTQRLLESIMKEDDQINVLQYEDLTEQVVATVCFAGSPILYEEQLPRGDEGQMVFQEYQLKTNKKIDAVISAEIGGMNALIPLVVALQTGCAVVDGDGMGRAFPEFTMTTFYMHGLPISPLILLTRDGKQHLIEGAANDRIVRDNRQLLNMHGGFGHFICCGADANVVKNMMVSGTLKLAYRLGRAMEQDQLSAAAGWTAVEDEWENSIYGKPTLLIKGTVESVVRTFDQEQIVGELTIIGKQRFIGTTLTVSFHNEFIAVKKEGQYLVMVPDLIIIVNAKTFLPYTTNEIQRGMSVLIYAIPAPNVLRQKQMIDHVGPQAYGLDVPYEPFFLEHHHHHH | not soluble
10 | MESKKRSSDKKSTEVDSMSDKESLYVSASDQPPAEITIKLEKDTKRKITIISEVENPKRARRGSADLRRQAIVNSAIRSAQSTASSRSRSRSRSRSRSTMNQQIRLARTRSASGGKLRRSRSARRRSPSSSASRSRSRSTSRTRAQSIPIRYRDRPEKIEKPIQPLPPLRLPTHLTKKSSVGSKKLPPPDCINLPSPLFILTEQQVIGASEKKTVQFVTKVLLTSKKLSLDDRKLLFAEMVEAEYVGTSRSSTDLNKSSDDEPEEEFATKIHYSSKGIYIHTVQNVRKIRSGKTSSITEEKSYANICKTKISGDHGKSTEGFLNVQCSETISVVDQKYIRSEEFKIGLTGVNVSGNVSINSSKTTFDPTKTITFSEDLMFDSKNIGITIRHSSVAEMKEMWHHEMGSFGEETSEYRELKFFFDEKKKDDNKTVGKSVVSILQGTKPSAPPASTSSSSKNSSSINSPKTPNISGSSRRSRSRAKRHKALQKRDSKTNRTPSPDRQSCKKDARPDQDPIKLSEIKVSEHVDSTGNETFYQSFPKATSTPKSPASSLNSSVLESKVKNSMQKTPDEGPSRRGAMSIRERSVSRNGDNEIDLDKSLSLKKPSASKNLASLLEKKEEARKTDVTSSMISSKPPTSPGTSVYMYNTGSANSTFMSAKDLHKERVAASTGPRSASKSPKGTLRVKETKVIREVRQEDGKPPEISEKKEETVKEEKVNLSERLRARSRASSPATPTLKRTFNQTDESNIVTLSAVKETHQTLEMTPIKVNSETVPSTSYGQRAFPESVQLDMLIDKKRLVLNVNFMLLAEKHPEVEILGFTFKGQKLWEKSSEWNLTSANTTSHTKTIARQASNILGDEEKKDEEQK | not soluble
11 | MGSDKIHHHHHHMPEPKQETDFTAPAFRWENQQLKAIYTPKNIYLDDLKGIERQKEKIIQNTLQFLNGLPANDVLLTGSRGTGKSSIVRALLTEYAPQGLRLIEIERDDLADLPKIQKIIQNRPEKYIVYCDDLAFNAEDENYRSLKSVLDGSLQSGSTNFIIYATSNRRHLLPEFMHENTPVTKVDVPQYTELHPQEAIEEKISLSDRFGLWLSFYPMDQNLYLEIVEHYLDKANMPFNDEVRAESLRWCQMRGQRSGRAAYQFSKHWIGLNALKDLSNN | not soluble
12 | SNAMENEKILNPIIIQRADPMIYKHNDGYYYFTASVPEYDRIEVRKAKTIEGLRNAEPVDVWRRHESGEMSNLIWAPEIHFINGAWYIYFAAAPDKNIEDDTFNHRMFVIQNENENPFTGNWVEKGRIKTAWESFSLDATIFEHNEKLYYVWAQQDINIKGHSNIYIAEMENPWTLKTKPVMLTKPELEWEIKGFWVNEGPAVLKKNGKIFITYSASATDVNYCIGMLTAEENSNLLDKNSWTKSQTPVFKTSMENHQYGPGHNSFTVSEDGKHDVIVYHARNYTEIKGDPLYDPNRHTRAQIINWREDGTPDFGVPEVDSLEIETPVKA | soluble
13 | GSHSLRYFVTAVSRPGHGKPRYMEVGYVDDTEFVRFDSDAENPRYEPRTPWMEQVEPEYWEGQTQIAKGNEQSSRVDLRTALRYYNQSAGGSHTIQRMRGCEVGSDGRLLRGYQQVAYDGRDYIALNEDLKTWTAADMAALITKHKWEQAGAAERDRAYLEGACVEWLRRYLELGNATLLRTDSPKAHVTHHSRPKDKVTLRCWALGFYPADITLTWQLNGEELTQDMELVETRPAGDGTFQKWASVVVPLGKEQNYTCHVYHEGLPEPLTLRW | soluble
14 | MDLSEDQIRGLPHHELLGHFLQMREEFNEFQTSSAEIEKMMDSELDDLKTQLKKAETRVQQMTTEQIRNKDRQDDSRVQFAQVEEQLRRENSHLHEQCESQRERIRKLEQRNDVLETSERNKEYLASDLGSKLDHAIEKIAMLESELYERQVAAEEMHRLREEQLRTTERPRLIVEPLRNDPEILPDEPSPGPSKEEFKMSSEDVFMEDVQHHEDVRMEETIAKIDEVRIDDNKNIQEKSQRVSTGTGAGACINRIVKDLMTKVERLDSILSTIRVSNNSSNNNSSHLTTTRA | not soluble
15 | MEKLEALKRLFPGKVDLSESERLRHGKDEGYPEARPVLAVVYPEGVEDVQKALRWAREWGVAVIPFGAGTSLEGHLYPVREAISLDLSRMNRVLEVRPQDFSCVVEPGLTRKALNEALKGTGLFFPVDPGADASLGGMAATNASGTTTVRYGGMRQNVLALQVVLASGEVLELGRGVRKTSSGYDLKDLFIGSEGTLGVITRLTLRLHPLPEHVHTLRVFFPGVEEAAEASYRIMASGLPVARLELLDELAMRALNRYLKAGFPERPALFLEFHASTKEALEAERASALELVREAGALEVEAATTEEERRRQWEARHQAYWALVHLFPGHRFMITDTAVPLSRLPEMVRFAQGLLREMGLTGNILGHVGDGNFHTLIPVLPEDYPKAEAYAERLVEKALELGGTCTAEHGVGLRKRKFLPKEHGPALEWMRRLKALFDPEGLLNPGKVV | soluble
16 | MGSDKIHHHHHHMVKLLLICLATIVMISCGSEQEKLTVYIPDTCTDTLQYEIYLPEEEGLNIFYDLCVTDSFCAFLDTRNDTLLKIFTATIPPALVGLGMKGEGPDDFLFPFFEKSIGREGKGKLSFIELNSWNKKIVAIHSAASPAPVAVSVVEAQQLPEMPVVRDYNETDSCVYGIDVDMQHGLFFIYDKHTARVKTVDYHRDIRSGYPEGHLSYLYESCLMVNQDAKAACMGLLNLNSLCFYDLKGNLMKEIVIGKELKSPEYDPEFLDFPNAPKYFISLCGTPNYLYALYNGFPGTSGKSKIMVFTWQGAPVAIYQTDVKLERIAVAPSGRYVLGLNITEEGGSDVLKFEL | not soluble
17 | GPGSMENKLLSAPQNTVNPIIEKKRVVSCGMCEVDTTKLLEELRKVKENLSEVIDECIFLENQCEMTEKRLKSELLDRDKRIADISSALMEMVKYTSLLERQVIASAFTTLGSAMKRAPAIDMCRNISLREVASAVRERGESSGSRSSAKRKTRNGALYSEAKMAEEKNAFLLSVDEACALVNGLLREKVNLAAKIGEVAFHVNNAIARGERTSPALPDASSENVDDLHQSILNLTKQLSACGNEGDEEKNLKQVPSQHTAETEEPRQPQGLIAEKEDNTSRPQSPSQTQPPAGLASLGPHILDISRSSLPAVSITTQKGEGECGDITTESLVKKLAAAEEKCMAVEKQSRREREELHAELAYLRNSSREEKEEYNTLIERLTVELEILVAENAVMRKRIKGRKHSRDKIE | not soluble
